Three molecules from paper PMC9321427 can be followed below.

Assay [1] concerns the target β-arrestin1-YFP (UniProt P49407). Put plainly: BRET (PAR2-Rluc8 / β-arrestin1-YFP) in cells. As to conditions: read off a plot.
Assay [2] concerns the target PAR2 peptide 10 (human).

On to “PAR2-Rluc8 (protease-activated receptor 2 fused to Renilla luciferase 8), uncleaved as expressed (from UniProt P55085) Arg36Ala”, for which the response (ligand induced ΔBRET) was 0.0038 in assay [1] (cells stimulated with GzmK (concentration not given for panel D), parent: est. 0.027) and -0.0015 in assay [1] (cells treated with GzmK-AI (inactive GzmK; concentration not given for panel D), parent: est. -0.001).

B1: Granzyme A (enzyme)
chain: IIGGNEVTPHSRPYMVLLSLDRKTICAGALIAKDWVLTAAHCNLNKRSQVILGAHSITREEPTKQIMLVKKEFPYPCYDPATREGDLKLLQLMEKAKINKYVTILHLPKKGDDVKPGTMCQVAGWGRTHNSASWSDTLREVNITIIDRKVCNDRNHYNFNPVIGMNMVCAGSLRGGRDSCNGDSGSPLLCEGVFRGVTSFGLENKCGDPRGPGVYILLSKKHLNWIIMTIKGAV
Regarding B1, in assay [2], the cleavage product as percent of total peptide by HPLC after 15 h with granzyme is 6.6 % of total.

B2: Granzyme K (enzyme)
chain: IIGGKEVSPHSRPFMASIQYGGHHVCGGVLIDPQWVLTAAHCQYRFTKGQSPTVVLGAHSLSKNEASKQTLEIKKFIPFSRVTSDPQSNDIMLVKLQTAAKLNKHVKMLHIRSKTSLRSGTKCKVTGWGATDPDSLRPSDTLREVTVTVLSRKLCNSQSYYNGDPFITKDMVCAGDAKGQKDSCKGDSGGPLICKGVFHAIVSGGHECGVATKPGIYTLLTKKYQTWIKSNLVPPHTN
As for B2, the cleavage product as percent of total peptide by HPLC after 15 h with granzyme in assay [2] was 53 % of total.
